We go through one molecule from PMC2111050, “Human RECQ1 Is a DNA Damage Responsive Protein Required for Genotoxic Stress Resistance and Suppression of Sister Chromatid Exchanges” (PLoS ONE, 2007).

The experiment addresses T1, Recombinant human RECQ1 helicase (human, UniProt P46063 1-649).
T1 construct: RECQ1 (RECQL) helicase, human; the gene encodes a 649 amino acid protein of 73 kDa; also called RECQL
T1 sequence (looked up): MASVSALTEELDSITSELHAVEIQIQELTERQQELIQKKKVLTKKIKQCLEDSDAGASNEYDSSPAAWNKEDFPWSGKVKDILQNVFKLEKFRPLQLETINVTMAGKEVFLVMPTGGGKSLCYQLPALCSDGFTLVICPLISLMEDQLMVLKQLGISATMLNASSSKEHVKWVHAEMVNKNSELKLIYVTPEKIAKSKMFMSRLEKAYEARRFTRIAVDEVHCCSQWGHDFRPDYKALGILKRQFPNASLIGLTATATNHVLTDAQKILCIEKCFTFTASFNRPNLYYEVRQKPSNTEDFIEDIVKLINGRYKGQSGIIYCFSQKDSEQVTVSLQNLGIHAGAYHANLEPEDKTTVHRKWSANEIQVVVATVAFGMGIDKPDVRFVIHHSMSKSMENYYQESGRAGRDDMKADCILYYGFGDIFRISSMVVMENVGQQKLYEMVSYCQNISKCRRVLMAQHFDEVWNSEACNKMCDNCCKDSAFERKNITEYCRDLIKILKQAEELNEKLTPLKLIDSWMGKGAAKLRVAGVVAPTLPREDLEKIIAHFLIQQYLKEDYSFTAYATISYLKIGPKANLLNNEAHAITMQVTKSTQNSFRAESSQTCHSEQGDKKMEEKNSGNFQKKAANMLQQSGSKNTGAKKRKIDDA
Description: ELISA; RECQ1 (14 nM; 1 ng/µl, 50 µl) or BSA coated on wells in carbonate buffer pH 9.6; Rad51 0-76 nM in PBS, 0.5% Tween-20, 3% BSA, 1 h at 30°C; detected with rabbit anti-Rad51; Scatchard analysis, apparent Kd; similar signal with DNaseI (100 U/ml) or EtBr (50 µg/ml). The note with it: both partners purified.

B1: Purified recombinant human Rad51 (natural protein, UniProt Q06609 1-339, looked up)
chain: MAMQMQLEANADTSVEEESFGPQPISRLEQCGINANDVKKLEEAGFHTVEAVAYAPKKELINIKGISEAKADKILAEAAKLVPMGFTTATEFHQRRSEIIQITTGSKELDKLLQGGIETGSITEMFGEFRTGKTQICHTLAVTCQLPIDRGGGEGKAMYIDTEGTFRPERLLAVAERYGLSGSDVLDNVAYARAFNTDHQTQLLYQASAMMVESRYALLIVDSATALYRTDYSGRGELSARQMHLARFLRMLLRLADEFGVAVVITNQVVAQVDGAAMFAADPKKPIGGNIIAHASTTRLYLRKGRGETRICKIYDSPCLPEAEAMFAINADGVGDAKD
notes: Rad51 strand exchange protein, human; source: provided by Dr. Ian Hickson (Cancer Research UK Laboratories); purified recombinant
Take B1: the Kd worked out at 11.9 ± 2.1 nM.
